Laboratory results published in the supplement of paper PMC10724198.
± gives the standard deviation of the averaged measurements.

Tested on: Saccharomyces cerevisiae
Assay: protein stability index of tFT-peptide fusion (C-terminal peptide) (PSI (0-1 scale)); higher = more stable (slower turnover)
Conditions: temperature: 30 C
Protocol: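 MPS profiling in S. cerevisiae of the yeast C-terminome library: the last 12 aa of each annotated ORF are fused to the C-terminus of a sfGFP-mCherry timer, after a GGGS linker. Cells are FACS-sorted into 8 mCherry/sfGFP bins and deep-sequenced. PSI runs from 0 (unstable) to 1 (stable); wild type and das1Δ backgrounds, two technical replicates each.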

[1] = genetic background: das1 deletion

Sequence | protein stability index [1] | protein stability index (genetic background: wild type)
LLTYFRKHVKDT [SCC2 C-terminal 12 aa] | 0.714 ± 0.043 | 0.572 ± 0.054
LEKEKLFNNGNH [PRI2 C-terminal 12 aa] | 0.722 ± 0.053 | 0.722 ± 0.055
PSGNIVMERLDE [UBX3 C-terminal 12 aa] | 0.6901 ± 0.0013 | 0.64 ± 0.021
IYQPSRNRLVRY [YBR076C-A C-terminal 12 aa] | 0.707 ± 0.025 | 0.7018 ± 0.0025
YGSAPSLDSLFL [YJL067W C-terminal 12 aa] | 0.725 ± 0.02 | 0.6981 ± 0.0068
QRELKKVDGTPI [RCI50 C-terminal 12 aa] | 0.6851 ± 0.0065 | 0.741 ± 0.0098
GEDVLEGGCLLI [YIR023C-A C-terminal 12 aa] | 0.708 ± 0.051 | 0.727 ± 0.057
TSAGSNIFSTGQ [BBP1 C-terminal 12 aa] | 0.699 ± 0.011 | 0.752 ± 0.043
GSNELLSILHRK [DCP2 C-terminal 12 aa] | 0.73 ± 0.018 | 0.694 ± 0.059
RPMPPIRGPKRR [SMD3 C-terminal 12 aa] | 0.688 ± 0.017 | 0.724 ± 0.048
GDDDIDDDDDMI [TVP15 C-terminal 12 aa] | 0.691 ± 0.023 | 0.677 ± 0.023
NIRIVNGLQNTR [TIM8 C-terminal 12 aa] | 0.712 ± 0.014 | 0.669 ± 0.011
DKEVLHVKADSL [FTR1 C-terminal 12 aa] | 0.7131 ± 0.0063 | 0.7 ± 0.047
RLYVSRLFISKL [ATP8 C-terminal 12 aa] | 0.801 ± 0.042 | 0.671 ± 0.14
QRIKQNNFLSQL [MRPL37 C-terminal 12 aa] | 0.7 ± 0.016 | 0.731 ± 0.05
QGHGPVSPSPTK [PTM1 C-terminal 12 aa] | 0.701 ± 0.022 | 0.723 ± 0.086
VPEFLLHRRNSI [NTE1 C-terminal 12 aa] |  | 0.75 ± 0.05
YMMNSQSPRGKI [POM34 C-terminal 12 aa] | 0.71 ± 0.0093 | 0.732 ± 0.074
DPERQNNSNFYN [SMC6 C-terminal 12 aa] | 0.702 ± 0.052 | 0.686 ± 0.026
NEKENSLSLSRL [MGT1 C-terminal 12 aa] | 0.7183 ± 0.0017 | 0.752 ± 0.058
NTTHYNDTLLKQ [PHO3 C-terminal 12 aa] | 0.738 ± 0.0097 | 0.6619 ± 0.0058

Sequence | protein stability index [1] | protein stability index (genetic background: wild type)
PSIARILEFMQS [SAY1 C-terminal 12 aa] | 0.729 ± 0.013 | 0.654 ± 0.09
DYKLLKELASQV [GLT1 C-terminal 12 aa] | 0.66531 ± 0.00065 | 0.635 ± 0.054
RSDTKEPLALLS [VPS20 C-terminal 12 aa] | 0.6784 ± 0.0067 | 0.646 ± 0.01
DSEDDNDTSSES [PRP38 C-terminal 12 aa] | 0.682 ± 0.026 | 0.6733 ± 0.0012
SLNRPAERGGNR [YNL143C C-terminal 12 aa] | 0.69578 ± 0.00021 | 0.688 ± 0.041
IREFLEEIVDTQ [SUS1 C-terminal 12 aa] | 0.725 ± 0.081 | 0.728 ± 0.091
IDMLKMSNAEEY [YLR012C C-terminal 12 aa] | 0.672 ± 0.015 | 0.6642 ± 0.0041
FDSNVSVAVDER [SET5 C-terminal 12 aa] | 0.699 ± 0.022 | 0.651 ± 0.027
EALVKQITSVKQ [SCC4 C-terminal 12 aa] | 0.6973 ± 0.006 | 0.701 ± 0.015
VAVASASSSASS [VPH1 C-terminal 12 aa] | 0.683 ± 0.019 | 0.682 ± 0.032
LPLYYVYQCDMI [YDR094W C-terminal 12 aa] | 0.6642 ± 0.0046 | 0.643 ± 0.052
ASIGSDIVNNIF [PIN3 C-terminal 12 aa] | 0.712 ± 0.032 | 0.711 ± 0.04
FNVTKKSLTNHS [CDS1 C-terminal 12 aa] | 0.6978 ± 0.0048 | 0.742 ± 0.049
PLFADYLNKNLN [KTI12 C-terminal 12 aa] | 0.7162 ± 0.0014 | 0.671 ± 0.014
KKRRIHPTPVDL [CAC2 C-terminal 12 aa] | 0.6974 ± 0.0037 | 0.724 ± 0.027
NTGSKKSVPTSS [AQY3 C-terminal 12 aa] | 0.7037 ± 0.0017 | 0.732 ± 0.068
KLGEAEVQGLIM [YDR340W C-terminal 12 aa] | 0.721 ± 0.0023 | 0.688 ± 0.0056
TSASSNLDDSFS [YPR002C-A C-terminal 12 aa] | 0.69 ± 0.019 | 0.6996 ± 0.002
IKKGTPNNIAFL [YJL197C-A C-terminal 12 aa] | 0.7027 ± 0.0063 | 0.704 ± 0.017
RPFYKRMFTKEK [HXT5 C-terminal 12 aa] | 0.7313 ± 0.0058 | 0.732 ± 0.033
FLDDVLNGREII [YNL058C C-terminal 12 aa] | 0.708 ± 0.011 | 0.752 ± 0.015

Sequence | protein stability index [1] | protein stability index (genetic background: wild type)
ILISTIYAHCSS [HFD1 C-terminal 12 aa] | 0.577 ± 0.0076 | 0.489 ± 0.015
NERGLSSNYQTI [FMP42 C-terminal 12 aa] | 0.7217 ± 0.0025 | 0.6736 ± 0.0013
SSLPYDILPALL [YGL199C C-terminal 12 aa] | 0.703 ± 0.004 | 0.6882 ± 0.0011
IFVFFVIWVLVN [SED5 C-terminal 12 aa] | 0.209 ± 0.019 | 0.211 ± 0.015
LSNQNSPLFLYH [YHR175W-A C-terminal 12 aa] | 0.7053 ± 0.0058 | 0.705 ± 0.015
ISISHSAVPNIV [YAL069W C-terminal 12 aa] | 0.678 ± 0.0075 | 0.729 ± 0.037
LKSIYTSERITI [RAD61 C-terminal 12 aa] | 0.707 ± 0.04 | 0.667 ± 0.025
LLLQFPPYLPHD [LAG2 C-terminal 12 aa] | 0.75 ± 0.019 | 0.7442 ± 0.0048
PEHPGNKRAGSG [YER145C-A C-terminal 12 aa] | 0.6885 ± 0.00081 | 0.6979 ± 0.0024
KAIEYFEEYQCW [FRE2 C-terminal 12 aa] | 0.722 ± 0.048 | 0.704 ± 0.052
SHDMDFNNAGDF [HMS1 C-terminal 12 aa] | 0.707 ± 0.03 | 0.7067 ± 0.0045
VQRVILITHLNV [YOL083C-A C-terminal 12 aa] | 0.6054 ± 0.0053 | 0.616 ± 0.0084
YNITQQILQFLH [VAC8 C-terminal 12 aa] | 0.701 ± 0.024 | 0.327 ± 0.0072
TRSAWDRAQRRL [LCP5 C-terminal 12 aa] | 0.697 ± 0.015 | 0.674 ± 0.013
NRSSKIVSIRED [CPR8 C-terminal 12 aa] | 0.702 ± 0.03 | 0.714 ± 0.028
AVGPRQTGEECR [YER088W-B C-terminal 12 aa] | 0.695 ± 0.0098 | 0.66899 ± 0.00042
QEIQKKPSQQVS [BIG1 C-terminal 12 aa] | 0.698 ± 0.0083 | 0.683 ± 0.066
FKMCETEMQPIK [YGR201C C-terminal 12 aa] | 0.7043 ± 0.0065 | 0.669 ± 0.013
REVLEQEGRRIE [NBL1 C-terminal 12 aa] | 0.69 ± 0.0073 | 0.693 ± 0.054
HPNIDALLKKTE [MST27 C-terminal 12 aa] | 0.686 ± 0.014 | 0.654 ± 0.035
EDKGLLSCCTVM [YCP4 C-terminal 12 aa] | 0.786 ± 0.011 | 0.743 ± 0.032

Sequence | protein stability index [1] | protein stability index (genetic background: wild type)
NDKGEQVVGGNE [TMA16 C-terminal 12 aa] | 0.663 ± 0.042 | 0.717 ± 0.04
DLYTEEFLKEGK [PRP39 C-terminal 12 aa] | 0.683 ± 0.035 | 0.6685 ± 0.0064
LVIDQITQLRQQ [COG1 C-terminal 12 aa] | 0.6966 ± 0.0015 | 0.6158 ± 0.0047
GKQKQLLFHIGV [HEL2 C-terminal 12 aa] | 0.6865 ± 0.0042 | 0.718 ± 0.035
LAEVIGVLLKDM [AIM10 C-terminal 12 aa] | 0.69483 ± 0.00037 | 0.646 ± 0.038
VEVEYLLRRLEE [ARO7 C-terminal 12 aa] | 0.691 ± 0.013 | 0.6589 ± 0.0044
GIPEEFKEFTEV [MND1 C-terminal 12 aa] | 0.7022 ± 0.0026 | 0.7181 ± 0.0035
NGRYIDTEFESM [LCB4 C-terminal 12 aa] | 0.6854 ± 0.0012 | 0.681 ± 0.022
RKAAERDNMLTT [CTL1 C-terminal 12 aa] | 0.704 ± 0.015 | 0.706 ± 0.0072
YEEALKLGWDKN [OYE2 C-terminal 12 aa] | 0.735 ± 0.046 | 0.762 ± 0.0096
GEDEENTVDSQY [YOL131W C-terminal 12 aa] | 0.688 ± 0.015 | 0.6803 ± 0.0017
GAGWSGFKKVFK [GYL1 C-terminal 12 aa] | 0.692 ± 0.013 | 0.722 ± 0.042
EDGAVGNLFDDN [MSN5 C-terminal 12 aa] | 0.681 ± 0.018 | 0.667 ± 0.033
KKRNWKRREASS [NRG2 C-terminal 12 aa] | 0.698 ± 0.016 | 0.626 ± 0.044
DVEVVCRQNNFV [YDR327W C-terminal 12 aa] | 0.723 ± 0.0082 | 0.724 ± 0.025
RLVVEPLQGRKH [ISD11 C-terminal 12 aa] | 0.729 ± 0.011 | 0.72 ± 0.036
LLAKQLLLLLLR [YER079C-A C-terminal 12 aa] | 0.33 ± 0.018 | 0.342 ± 0.0063
LIDSYCLGGESR [YPL034W C-terminal 12 aa] | 0.688 ± 0.018 | 0.697 ± 0.039
LLRKHVFPSVPK [VFA1 C-terminal 12 aa] | 0.732 ± 0.026 | 0.738 ± 0.031
